According to the supplement of paper PMC7125110:
± gives the standard error. This sample holds only a part of the variants without activity.

B1: glmS ribozyme (parent)
chain: AUAAAAGCGCCAGAACUACAGAAAUGUAGUUGACGAGGAGGAGGUUUAUCGAAUUUUCGGCGGAUGCCUCCAAA

Assays:
Details in all cases: with glucosamine-6-phosphate
glucosamine-6-phosphate [1] = variants of: B1; test: self-cleavage kobs at 640 uM GlcN6P; higher = faster cleavage; RNA array
How it was run: (§1)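 Glucosamine-6-phosphate (40 μM to 10 mM) in HEPES/KCl/Mg(OAc)2 buffer was flowed over sequenced MiSeq chips, and tiles were imaged over ~14 h. Barcoded ribozyme variants there had been transcribed in situ by E. coli RNA polymerase and were tracked through a hybridised Cy3 probe at 37 °C. One- or two-exponential decay fits to per-tile medians, normalised to baseline and to non-cleaving reference variants, gave kobs. kcat and KM came from weighted Michaelis–Menten fits across concentrations.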

glucosamine-6-phosphate [2] = variants of: B1; test: self-cleavage kobs at 2500 uM GlcN6P; higher = faster cleavage; RNA array
How it was run: as §1

glucosamine-6-phosphate [3] = variants of: B1; test: self-cleavage kobs at 10000 uM GlcN6P; higher = faster cleavage; RNA array
How it was run: as §1

A12U C16A A53C
self-cleavage kobs at 640 uM GlcN6P (glucosamine-6-phosphate [1]): 0.000148 ± 3.3e-05 s⁻¹
self-cleavage kobs at 2500 uM GlcN6P (glucosamine-6-phosphate [2]): 0.000358 ± 7.9e-05 s⁻¹

C34G G63A C67A
self-cleavage kobs at 640 uM GlcN6P (glucosamine-6-phosphate [1]): < 1e-05 s⁻¹
self-cleavage kobs at 2500 uM GlcN6P (glucosamine-6-phosphate [2]): < 1e-05 s⁻¹

A42G U54G U55G U65A C67A C71U
self-cleavage kobs at 640 uM GlcN6P (glucosamine-6-phosphate [1]): 0.000215 ± 3.1e-05 s⁻¹
self-cleavage kobs at 2500 uM GlcN6P (glucosamine-6-phosphate [2]): 8.43e-05 ± 2e-05 s⁻¹

C34U A39C A53U
self-cleavage kobs at 640 uM GlcN6P (glucosamine-6-phosphate [1]): < 1e-05 s⁻¹
self-cleavage kobs at 2500 uM GlcN6P (glucosamine-6-phosphate [2]): < 1e-05 s⁻¹

A36C U57C C67U
self-cleavage kobs at 640 uM GlcN6P (glucosamine-6-phosphate [1]): < 1e-05 s⁻¹
self-cleavage kobs at 2500 uM GlcN6P (glucosamine-6-phosphate [2]): < 1e-05 s⁻¹

A12U C16U G43U
self-cleavage kobs at 640 uM GlcN6P (glucosamine-6-phosphate [1]): 4.04e-05 ± 1.7e-05 s⁻¹
self-cleavage kobs at 2500 uM GlcN6P (glucosamine-6-phosphate [2]): 7.33e-05 ± 1.4e-05 s⁻¹

C8U A15C C16G U30C
self-cleavage kobs at 640 uM GlcN6P (glucosamine-6-phosphate [1]): < 1e-05 s⁻¹

A42U G43A G51A C68U
self-cleavage kobs at 640 uM GlcN6P (glucosamine-6-phosphate [1]): < 1e-05 s⁻¹

G29C G51U C61G C70A
self-cleavage kobs at 640 uM GlcN6P (glucosamine-6-phosphate [1]): 9.9e-05 ± 3.7e-05 s⁻¹
self-cleavage kobs at 2500 uM GlcN6P (glucosamine-6-phosphate [2]): 7.11e-05 ± 2.2e-05 s⁻¹

C10U C34G U46A A48U U69A
self-cleavage kobs at 640 uM GlcN6P (glucosamine-6-phosphate [1]): < 1e-05 s⁻¹
self-cleavage kobs at 2500 uM GlcN6P (glucosamine-6-phosphate [2]): < 1e-05 s⁻¹
self-cleavage kobs at 10000 uM GlcN6P (glucosamine-6-phosphate [3]): < 1e-05 s⁻¹

C11G A39C C67G
self-cleavage kobs at 640 uM GlcN6P (glucosamine-6-phosphate [1]): < 1e-05 s⁻¹
self-cleavage kobs at 2500 uM GlcN6P (glucosamine-6-phosphate [2]): < 1e-05 s⁻¹

C11A G63A C67A U69C
self-cleavage kobs at 640 uM GlcN6P (glucosamine-6-phosphate [1]): < 1e-05 s⁻¹

G44U U54G C68A
self-cleavage kobs at 640 uM GlcN6P (glucosamine-6-phosphate [1]): < 1e-05 s⁻¹

G29U G38U U57A G59C
self-cleavage kobs at 640 uM GlcN6P (glucosamine-6-phosphate [1]): < 1e-05 s⁻¹

G7U A15U G44C
self-cleavage kobs at 640 uM GlcN6P (glucosamine-6-phosphate [1]): < 1e-05 s⁻¹
self-cleavage kobs at 2500 uM GlcN6P (glucosamine-6-phosphate [2]): < 1e-05 s⁻¹

U31C G44A C50A
self-cleavage kobs at 640 uM GlcN6P (glucosamine-6-phosphate [1]): < 1e-05 s⁻¹

C50G A52U G63C
self-cleavage kobs at 640 uM GlcN6P (glucosamine-6-phosphate [1]): < 1e-05 s⁻¹
self-cleavage kobs at 2500 uM GlcN6P (glucosamine-6-phosphate [2]): < 1e-05 s⁻¹

G32U A52C C61U
self-cleavage kobs at 640 uM GlcN6P (glucosamine-6-phosphate [1]): < 1e-05 s⁻¹

G35A A53C G63C
self-cleavage kobs at 640 uM GlcN6P (glucosamine-6-phosphate [1]): < 1e-05 s⁻¹
self-cleavage kobs at 2500 uM GlcN6P (glucosamine-6-phosphate [2]): < 1e-05 s⁻¹

C8U A12U A14U G44A C61U
self-cleavage kobs at 640 uM GlcN6P (glucosamine-6-phosphate [1]): < 1e-05 s⁻¹
self-cleavage kobs at 2500 uM GlcN6P (glucosamine-6-phosphate [2]): < 1e-05 s⁻¹

U31C A42C A64G C67G
self-cleavage kobs at 640 uM GlcN6P (glucosamine-6-phosphate [1]): < 1e-05 s⁻¹

G40U G41U C68U
self-cleavage kobs at 640 uM GlcN6P (glucosamine-6-phosphate [1]): < 1e-05 s⁻¹
self-cleavage kobs at 2500 uM GlcN6P (glucosamine-6-phosphate [2]): < 1e-05 s⁻¹

G41C A42C C50G
self-cleavage kobs at 640 uM GlcN6P (glucosamine-6-phosphate [1]): < 1e-05 s⁻¹

A15U C16U A39C
self-cleavage kobs at 640 uM GlcN6P (glucosamine-6-phosphate [1]): 5.94e-05 ± 1.6e-05 s⁻¹

G35U A39U G62A
self-cleavage kobs at 640 uM GlcN6P (glucosamine-6-phosphate [1]): < 1e-05 s⁻¹
self-cleavage kobs at 2500 uM GlcN6P (glucosamine-6-phosphate [2]): < 1e-05 s⁻¹

A14G A33U G35C
self-cleavage kobs at 640 uM GlcN6P (glucosamine-6-phosphate [1]): < 1e-05 s⁻¹

A36G A39C A64U C71G
self-cleavage kobs at 640 uM GlcN6P (glucosamine-6-phosphate [1]): < 1e-05 s⁻¹
self-cleavage kobs at 2500 uM GlcN6P (glucosamine-6-phosphate [2]): < 1e-05 s⁻¹

A15G G35C A53U
self-cleavage kobs at 640 uM GlcN6P (glucosamine-6-phosphate [1]): < 1e-05 s⁻¹
self-cleavage kobs at 2500 uM GlcN6P (glucosamine-6-phosphate [2]): < 1e-05 s⁻¹
self-cleavage kobs at 10000 uM GlcN6P (glucosamine-6-phosphate [3]): < 1e-05 s⁻¹

G7U A12G C16U
self-cleavage kobs at 640 uM GlcN6P (glucosamine-6-phosphate [1]): < 1e-05 s⁻¹
self-cleavage kobs at 2500 uM GlcN6P (glucosamine-6-phosphate [2]): < 1e-05 s⁻¹

C8U G60A U65C
self-cleavage kobs at 640 uM GlcN6P (glucosamine-6-phosphate [1]): < 1e-05 s⁻¹

A12U G44U U45C C70G
self-cleavage kobs at 640 uM GlcN6P (glucosamine-6-phosphate [1]): < 1e-05 s⁻¹

C10U C11A G43A C68G C70U
self-cleavage kobs at 640 uM GlcN6P (glucosamine-6-phosphate [1]): < 1e-05 s⁻¹

A12G G40U G41C
self-cleavage kobs at 640 uM GlcN6P (glucosamine-6-phosphate [1]): < 1e-05 s⁻¹

C8G G35A C70G
self-cleavage kobs at 640 uM GlcN6P (glucosamine-6-phosphate [1]): < 1e-05 s⁻¹

U46A C58A C61U C71G
self-cleavage kobs at 640 uM GlcN6P (glucosamine-6-phosphate [1]): < 1e-05 s⁻¹
self-cleavage kobs at 2500 uM GlcN6P (glucosamine-6-phosphate [2]): < 1e-05 s⁻¹

G7C A12C G32A C50A G60U
self-cleavage kobs at 640 uM GlcN6P (glucosamine-6-phosphate [1]): < 1e-05 s⁻¹

C11U G62U
self-cleavage kobs at 640 uM GlcN6P (glucosamine-6-phosphate [1]): < 1e-05 s⁻¹
self-cleavage kobs at 10000 uM GlcN6P (glucosamine-6-phosphate [3]): < 1e-05 s⁻¹

G13A A52C G63U
self-cleavage kobs at 640 uM GlcN6P (glucosamine-6-phosphate [1]): < 1e-05 s⁻¹

G35C G51U A64C
self-cleavage kobs at 640 uM GlcN6P (glucosamine-6-phosphate [1]): < 1e-05 s⁻¹
self-cleavage kobs at 2500 uM GlcN6P (glucosamine-6-phosphate [2]): < 1e-05 s⁻¹

G9C C50U C58U
self-cleavage kobs at 640 uM GlcN6P (glucosamine-6-phosphate [1]): < 1e-05 s⁻¹
self-cleavage kobs at 2500 uM GlcN6P (glucosamine-6-phosphate [2]): < 1e-05 s⁻¹

A33C U54G A64C C70G
self-cleavage kobs at 640 uM GlcN6P (glucosamine-6-phosphate [1]): < 1e-05 s⁻¹
self-cleavage kobs at 2500 uM GlcN6P (glucosamine-6-phosphate [2]): < 1e-05 s⁻¹

C10G A33G
self-cleavage kobs at 640 uM GlcN6P (glucosamine-6-phosphate [1]): < 1e-05 s⁻¹
self-cleavage kobs at 10000 uM GlcN6P (glucosamine-6-phosphate [3]): < 1e-05 s⁻¹

G13U G62C
self-cleavage kobs at 640 uM GlcN6P (glucosamine-6-phosphate [1]): < 1e-05 s⁻¹
self-cleavage kobs at 2500 uM GlcN6P (glucosamine-6-phosphate [2]): < 1e-05 s⁻¹

G9U U30C C34U C58U G66U C70G
self-cleavage kobs at 640 uM GlcN6P (glucosamine-6-phosphate [1]): < 1e-05 s⁻¹
self-cleavage kobs at 10000 uM GlcN6P (glucosamine-6-phosphate [3]): < 1e-05 s⁻¹

C16U G29A U31G
self-cleavage kobs at 640 uM GlcN6P (glucosamine-6-phosphate [1]): 0.00216 ± 0.00066 s⁻¹
self-cleavage kobs at 2500 uM GlcN6P (glucosamine-6-phosphate [2]): 0.0232 ± 0.011 s⁻¹

G21A C70U
self-cleavage kobs at 640 uM GlcN6P (glucosamine-6-phosphate [1]): 0.00594 ± 0.0022 s⁻¹
self-cleavage kobs at 2500 uM GlcN6P (glucosamine-6-phosphate [2]): 0.00398 ± 0.0016 s⁻¹

G29U A33C C34A G37A C50U U69G
self-cleavage kobs at 640 uM GlcN6P (glucosamine-6-phosphate [1]): 0.000251 ± 5.9e-05 s⁻¹
self-cleavage kobs at 10000 uM GlcN6P (glucosamine-6-phosphate [3]): 0.000226 ± 4.5e-05 s⁻¹

G7U C71A
self-cleavage kobs at 640 uM GlcN6P (glucosamine-6-phosphate [1]): < 1e-05 s⁻¹
self-cleavage kobs at 10000 uM GlcN6P (glucosamine-6-phosphate [3]): < 1e-05 s⁻¹

G9A A36G A39C C70G
self-cleavage kobs at 640 uM GlcN6P (glucosamine-6-phosphate [1]): < 1e-05 s⁻¹
self-cleavage kobs at 2500 uM GlcN6P (glucosamine-6-phosphate [2]): < 1e-05 s⁻¹

G43A G44A C58U
self-cleavage kobs at 640 uM GlcN6P (glucosamine-6-phosphate [1]): < 1e-05 s⁻¹

C16G A39C G41U U56C C67U
self-cleavage kobs at 640 uM GlcN6P (glucosamine-6-phosphate [1]): < 1e-05 s⁻¹

G21A G44U
self-cleavage kobs at 640 uM GlcN6P (glucosamine-6-phosphate [1]): 9.22e-05 ± 2.3e-05 s⁻¹
self-cleavage kobs at 2500 uM GlcN6P (glucosamine-6-phosphate [2]): 0.000164 ± 3.3e-05 s⁻¹

C8G C11U A36U
self-cleavage kobs at 640 uM GlcN6P (glucosamine-6-phosphate [1]): < 1e-05 s⁻¹
self-cleavage kobs at 2500 uM GlcN6P (glucosamine-6-phosphate [2]): < 1e-05 s⁻¹

A48G U54C C67U
self-cleavage kobs at 640 uM GlcN6P (glucosamine-6-phosphate [1]): < 1e-05 s⁻¹

G7A A39C
self-cleavage kobs at 640 uM GlcN6P (glucosamine-6-phosphate [1]): < 1e-05 s⁻¹
self-cleavage kobs at 2500 uM GlcN6P (glucosamine-6-phosphate [2]): < 1e-05 s⁻¹

A6U G29A G44U
self-cleavage kobs at 640 uM GlcN6P (glucosamine-6-phosphate [1]): < 1e-05 s⁻¹

G13C A14U G40U G51C A53G U54A
self-cleavage kobs at 640 uM GlcN6P (glucosamine-6-phosphate [1]): < 1e-05 s⁻¹

A6C G13U C50G G62A C68U
self-cleavage kobs at 640 uM GlcN6P (glucosamine-6-phosphate [1]): 0.000276 ± 0.0001 s⁻¹
self-cleavage kobs at 2500 uM GlcN6P (glucosamine-6-phosphate [2]): 0.000212 ± 9.7e-05 s⁻¹

U31G G44A U46A G62C
self-cleavage kobs at 640 uM GlcN6P (glucosamine-6-phosphate [1]): < 1e-05 s⁻¹
self-cleavage kobs at 2500 uM GlcN6P (glucosamine-6-phosphate [2]): < 1e-05 s⁻¹

C11G U45C C50G
self-cleavage kobs at 640 uM GlcN6P (glucosamine-6-phosphate [1]): < 1e-05 s⁻¹
self-cleavage kobs at 2500 uM GlcN6P (glucosamine-6-phosphate [2]): < 1e-05 s⁻¹

A12C U31C A48C A52U
self-cleavage kobs at 640 uM GlcN6P (glucosamine-6-phosphate [1]): < 1e-05 s⁻¹
self-cleavage kobs at 2500 uM GlcN6P (glucosamine-6-phosphate [2]): < 1e-05 s⁻¹

C8A C11U G37C G62A
self-cleavage kobs at 640 uM GlcN6P (glucosamine-6-phosphate [1]): < 1e-05 s⁻¹
self-cleavage kobs at 2500 uM GlcN6P (glucosamine-6-phosphate [2]): < 1e-05 s⁻¹

U31G C50A U56G U69G
self-cleavage kobs at 640 uM GlcN6P (glucosamine-6-phosphate [1]): 0.000115 ± 3.6e-05 s⁻¹
self-cleavage kobs at 2500 uM GlcN6P (glucosamine-6-phosphate [2]): 7.11e-05 ± 1.8e-05 s⁻¹

G40A G41C A42C C70U
self-cleavage kobs at 640 uM GlcN6P (glucosamine-6-phosphate [1]): < 1e-05 s⁻¹
